Results as given in patent US7037497.

Columns and labels:
[1] = biological target: HIV-1JR-FL envelope glycoprotein gp120/gp41 on HeLa-EnvJR-FL+ cells (HIV-1 JR-FL); experiment: cell-based or functional assay
[2] = biological target: CCR5 chemokine receptor on the cell surface (UniProt P51681); experiment: flow cytometry on L1.2-CCR5+ cells, PE anti-mouse IgG
[3] = biological target: CCR5 chemokine receptor on the cell surface (UniProt P51681); experiment: cell-based or functional assay
[4] = biological target: CCR5 chemokine receptor on the cell surface (UniProt P51681)
[5] = biological target: CCR5 chemokine receptor on the cell surface (UniProt P51681); experiment: flow cytometry on PHA/IL-2-stimulated PBMC

Chain of UniProt P51681 (P51681 whole entry): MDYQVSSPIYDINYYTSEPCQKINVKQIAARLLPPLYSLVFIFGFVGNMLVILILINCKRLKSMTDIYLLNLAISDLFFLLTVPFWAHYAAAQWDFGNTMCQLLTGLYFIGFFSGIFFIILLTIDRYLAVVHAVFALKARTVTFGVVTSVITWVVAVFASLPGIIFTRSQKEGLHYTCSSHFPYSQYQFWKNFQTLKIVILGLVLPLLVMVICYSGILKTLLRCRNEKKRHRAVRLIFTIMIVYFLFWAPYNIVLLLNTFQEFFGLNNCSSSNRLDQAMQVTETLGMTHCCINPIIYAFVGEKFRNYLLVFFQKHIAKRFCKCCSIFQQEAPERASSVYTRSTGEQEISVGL

Substance | K (= IC50) of the median effect fit, inhibition of env-mediated membrane fusion (RET assay) [1] [µg/mL] | % of cells stained (% of L1.2-CCR5+ cells) [2] | IC50, inhibition of JR-FL entry (luciferase reporter virus, U87MG-CD4+CCR5+ cells) [3] [µg/mL] | IC50, inhibition of cell-cell fusion (RET assay, PM1 and HeLa-EnvJR-FL+ cells) [3] [µg/mL] | K (= IC50) of the median effect fit, inhibition of cell-cell fusion (RET assay) [3] [µg/mL] | IC50 [4] [µg/mL] | % of cells stained [5] | IC50, inhibition of RANTES-induced calcium influx in L1.2-CCR5+ cells [3] [µg/mL] | IC50 of calcium influx inhibition, PA14 against 2D7 [3] [fold] | fold difference of m.f.i. against PA9 [5] [fold]
CD4-IgG2 (from UniProt P01730 26-204; P01730 26-204) (Fc fusion) | 0.31 | – | – | – | – | – | – | – | – | –
T-20 peptide | 0.017 | – | – | – | – | – | – | – | – | –
anti-CCR5 mAb 2D7 (antibody) | – | > 90 | 0.026 | 1.6 | 0.36 | 1.38 | > 20 % of PBMC | – | – | –
anti-CCR5 monoclonal antibody PA14 (ATCC No. HB-12610) | – | > 90 | 0.024 | 1.7 | – | 1.58 | > 20 % of PBMC | 50 | 8 | 7
